Test results from paper PMC5640227.

Tests used:
[1] = molecular target: Human Respiratory Syncytial Virus Matrix (M) protein, GAL4 fusion (Human Respiratory Syncytial Virus) (UniProt P0DOE7); test: two-hybrid
[2] = molecular target: Adaptor protein complex 3 medium subunit (AP-3Mu3A), GAL4 fusion (human (HeLa cDNA library)) (UniProt Q9Y2T2); test: two-hybrid
UniProt Q9Y2T2, sequence (Q9Y2T2 whole entry, the tested form may be a part, one chain of several): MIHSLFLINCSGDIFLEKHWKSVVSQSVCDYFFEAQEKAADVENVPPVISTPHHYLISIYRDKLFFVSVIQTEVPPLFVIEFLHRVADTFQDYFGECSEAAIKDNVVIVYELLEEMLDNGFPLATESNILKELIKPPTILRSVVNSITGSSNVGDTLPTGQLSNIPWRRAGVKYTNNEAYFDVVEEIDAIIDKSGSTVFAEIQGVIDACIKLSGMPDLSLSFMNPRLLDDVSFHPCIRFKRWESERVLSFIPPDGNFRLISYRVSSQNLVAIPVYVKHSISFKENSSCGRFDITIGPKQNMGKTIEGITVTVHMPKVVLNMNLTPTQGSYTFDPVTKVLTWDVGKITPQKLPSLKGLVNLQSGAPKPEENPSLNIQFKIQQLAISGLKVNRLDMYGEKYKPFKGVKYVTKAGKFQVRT

Adaptor protein complex 3 medium subunit (AP-3Mu3A), GAL4 fusion (from UniProt Q9Y2T2 1-418) (natural protein)
beta-Galactosidase activity [1]: 458 units

B1: Human Respiratory Syncytial Virus Matrix (M) protein, GAL4 fusion (natural protein)
chain: METYVNKLHEGSTYTAAVQYNVLEKDDDPASLTIWVPMFQSSMPADLLIKELANVNILVKQISTPKGPSLRVMINSRSAVLAQMPSKFTICANVSLDERSKLAYDVTTPCEIKACSLTCLKSKNMLTTVKDLTMKTLNPTHDIIALCEFENIVTSKKVIIPTYLRSISVRNKDLNTLENITTTEFKNAITNAKIIPYSGLLLVITVTDNKGAFKYIKPQSQFIVDLGAYLEKESIYYVTTNWKHTATRFAIKPMED
beta-Galactosidase activity [2]: 420 units
